Assay results as given in the DeepSol protein solubility set.

Test: soluble on expression in E. coli; label from the status in PepcDB or PDB records

With “MGSDKIHHHHHHVPNFLPINTILVPQGAEYKAVCRGLNGVTGSIPTVVAIPVGMKPLLKYLHQGQFLAPKSRVLIMGICGSLSDRYRVGDIVLYQDCIYQGKLLECDRTFTAQLHSSLSEKVSLVKSLTSDRMIWSAAEKLHLGETLAADVVDMEGFTALEFFNVGGVAVTMLRVVSDDCQHDIPDLTSAINSDGSLNPFSLAMAMLRQPLAATRLIRGSLTALKVLEQVTNMLFSGNRPE” as the sequence, how does the “soluble on expression in E. coli” value read?
Its value is “not soluble”.

For “MGSDKIHHHHHHVRFCCHHDWLYGVLHLPQQPVTRGVLIVVGGPQYRVGSHRQFVLLARYLAERGIAVMRFDFRGMGDSDGEIRTFEHVGEDLRSAADFFFSECPFLEDIVIWGLCDAASAALFHAHQDSRVSGLVLLNPWVRTEQGIAKAYLKHYYLERLFDPEFWKKLLGGKFNPLASIRSLYEFGRNSLRGGKSPAVSEKSAGSACDLTVPLPERMLDGLKRFQGKILIITSGNDLTAREFLDLVDSSADWQATLRTKQTELCHMESANHTFSTREWRDQVTELTANRVLSW”, which “soluble on expression in E. coli” value is on record?
Its value is “not soluble”.

For “MGSDKIHHHHHHVRVLAIRHVEIEDLGMMEDIFREKNWSFDYLDTPKGEKLERPLEEYSLVVLLGGYMGAYEEEKYPFLKYEFQLIEEILKKEIPFLGICLGSQMLAKVLGASVYRGKNGEEIGWYFVEKVSDNKFFREFPDRLRVFQWHGDTFDLPRRATRVFTSEKYENQGFVYGKAVGLQFHIEVGARTMKRWIEAYKDELEKKKIDPRLLLETAEREEKVLKGLLRSLLERMVES”, which “soluble on expression in E. coli” value is on record?
Its value is “soluble”.

Which “soluble on expression in E. coli” value does the source give for “MGSDKIHHHHHHVRVPLLDRDHPRYGNDRFWPGMRAELAKLWRERGHAPILNPPRPRARTHKIQESRSMHLEVLRVPPTTADPEMADRPPLVFVHGAFAGAWCWRETFMPWFAARGWDTHALSLRGHGASDGAERLDSTRLADYADDLRRVIDELDRPPVLIGHSMGGMVVQKVLEDTQAAAAVLLASVPPTGLFSGSVLMALRHPLLCMALWRIQTFGPEEASLRMVEAGLFSTPLDAREAERYTALLQNESSRVVLDMTWFDVPRRRCPQELPLLVLGAEDDAFVPPIEVLATAAFHGTTAQLLPDIGHAMMLDRGWEKTASVMEEWLRCSAF” here?
The value was “not soluble”.

Which “soluble on expression in E. coli” value does the source give for “MGSDKIHHHHHHVSKPLTGIHILVTRPSHQAGGLAGKIRAAGGEPCLFPVLEIQDISDPRPLLELIERLDEFYLAIFVSPNAVNKAMSVICAKRALPSDLKIATVGQGTARTLRRFGVSGVIVPAVRFDSEALLDMAELDRINVAGKRIIIFRGDNGRELLGETLRKRGASVEYAECYRRIRPEAEIGPLLAAWTRGEMNGVTVTSSEGLRNLWEMVGDSGRTWLENTPLFVSHERIAGVARKLGFNRVIVTAAGDDGLVAGLQDYFSGHMG” here?
The value was “not soluble”.

For “MGSDKIHHHHHHWFMPFDNWLYQLQNADPVEISSSGFEIAVIDYSKDGSESGEYSPEEIKIMVDAGVVPVAYVNIGQAEDYRFYWKESWYTNTPEWLGEEDPAWPGNYFVKYWYNEWKEIVFSYLDRVIDQGFKGIYLDRIDSFEYWAQEGVISRRSAARKMINFVLEIAEYVRERKPDMLIIPQNGENILDFDDGQLASTVSGWAVENLFYLKTIPLEENETKSRLEYLIRLNRKGKFILSVDYVDDGSDSFENISRILDYYEKAKRNGCIPYAARSDLELDEMNVIEGIQPPEALKDYESRTYR”, which “soluble on expression in E. coli” value is on record?
The value was “not soluble”.

Which “soluble on expression in E. coli” value does the source give for “MGSEFSIDQKRYLEGFATGVTAARAARGSLPAGSAASPSGPDAIHHQAQDRVTASGKKLNDQEKWKREQHPFDAYARLKQQAKDNAAPKPADNFRWRYYGLFYVAPAQTSYMCRLRIPNGILTSWQMAGLAYLADTLADGYAHVTTRANLQMREIAPKDAVQLLQGIESLGLWARGSGADNIRNVTGSATAGIDPQELIDTRAYARDWHFYILNERALFGLPRKFNVAFDGGGLIPTLEDTNDIAFQAVTIGDGHGVAPGVYFRLALGGITGHKDFARDTGVIVAPDEATEVADAIVRVFIEHGDRTDRNKARLKYVLDAFGFDKYLELVEDKLGRKLIRVPAEAAAPRPAQDRAAHLGVHPQQQAGMNWIGVRLATGHLTSVQMRGLAEIARSFGDGDLRLTVWQNLLISGVPDARVTDATAAIEALGLAITASPLRAGLIACTGASGCRFAAAHTKETAEAIAQYCEPRVPLDTPINIHLTGCHNSCAQHFISDIGLIGAKVAVSDEDSVEGFHIHVGGGFGVDAAIGTEVLRDVKQDDAPRVIERMLQTYLARRASPAETFLAFVRRQDAAALQQLFAYEQSPETVA” here?
Its value is “not soluble”.

Which “soluble on expression in E. coli” value does the source give for “MGSEQNDSTSFTQSQASEPKLCVKGCGFFGSPSNMDLCSKCYRGICAEEAQTAVAKAAVEKSFKPSPPRSLFIAEPPAVVVEPKPEKAAVVVVSAEPSSSAVPEANEPSRPARTNRCLCCNKKVGIMGFKCKCGSTFCGEHRYPETHDCSFDFKEVGRGEIAKANPVVKADKIQRF” here?
The value was “soluble”.

Which “soluble on expression in E. coli” value does the source give for “MGSGRTWRELKEVFPKLARAKYYTRARYGYCRGYEAVDFVESVRWYYYVLSGLVVLDRPEAKHLEHHHHHH” here?
Its value is “not soluble”.

With “MGSPLPFRLTCVWAGEPSMKKAIIFDCEFLCLEGSQRRFWCAAHDPDPVIAQIGAVKLGLEGGFPLLETYKVLISPVDRHGRRYAIDPFFTRLTGITEENIEAEGVPLQDALSSFDSFSEGAQCWSWGKDELNMMAISTYVAGIQPPMPACRFDNAVRLLLAAGMPVEDLAKTPSNSLADYYGVAHPPLQGHDALGDALSVSYALQHLLRSGKLKPEEFTLAA” as the sequence, how does the “soluble on expression in E. coli” value read?
The value was “soluble”.

With “MGSSHHHHHHSSENLYFQGHMSSRAETPRVPFLDLKAAYEELRAETDAAIARVLDSGRYLLGPELEGFEAEFAAYCETDHAVGVNSGMDALQLALRGLGIGPGDEVIVPSHTYIASWLAVSATGATPVPVEPHEDHPTLDPLLVEKAITPRTRALLPVHLYGHPADMDALRELADRHGLHIVEDAAQAHGARYRGRRIGAGSSVAAFSFYPGKNLGCFGDGGAVVTGDPELAERLRMLRNYGSRQKYSHETKGTNSRLDEMQAAVLRIRLAHLDSWNGRRSALAAEYLSGLAGLPGIGLPVTAPDTDPVWHLFTVRTERRDELRSHLDARGIDTLTHYPVPVHLSPAYAGEAPPEGSLPRAESFARQVLSLPIGPHLERPQALRVIDAVREWAERVDQA” as the sequence, how does the “soluble on expression in E. coli” value read?
Its value is “soluble”.

With “MGSSHHHHHHSSGLVPRGSHMASAASYPPIKNTKVGLALSSHPLASEIGQKVLEEGGNAIDAAVAIGFALAVVHPAAGNIGGGGFAVIHLANGENVALDFREKAPLKATKNMFLDKQGNVVPKLSEDGYLAAGVPGTVAGMEAMLKKYGTKKLSQLIDPAIKLAENGYAISQRQAETLKEARERFLKYSSSKKYFFKKGHLDYQEGDLFVQKDLAKTLNQIKTLGAKGFYQGQVAELIEKDMKKNGGIITKEDLASYNVKWRKPVVGSYRGYKIISMSPPSSGGTHLIQILNVMENADLSALGYGASKNIHIAAEAMRQAYADRSVYMGDADFVSVPVDKLINKAYAKKIFDTIQPDTVTPSSQIKPGMGQLHEGSN” as the sequence, how does the “soluble on expression in E. coli” value read?
The value was “soluble”.

For “MGSSHHHHHHSSGLVPRGSHMASGMAPGGYVAPKAVWLPAVKAKGLEISGTFTHRQGHIYMEMNFTNKALQHMTDFAIQFNKNSFGVIPSTPLAIHTPLMPNQSIDVSLPLNTLGPVMKMEPLNNLQVAVKNNIDVFYFSCLIPLNVLFVEDGKMERQVFLATWKDIPNENELQFQIKECHLNADTVSSKLQNNNVYTIAKRNVEGQDMLYQSLKLTNGIWILAELRIQPGNPNYTLSLKCRAPEVSQYIYQVYDSILKN”, which “soluble on expression in E. coli” value is on record?
The value was “soluble”.

With “MGSSHHHHHHSSGLVPRGSHMFADVETTCCARRTLTTIDEVPGMADETALLDWLGTMREKQPVWQDRYGVWHVFRHADVQTVLRDTATFSSDPTRVIEGASPTPGMIHEIDPPEHRALRKVVSSAFTPRTISDLEPRIRDVTRSLLADAGESFDLVDVLAFPLPVTIVAELLGLPPMDHEQFGDWSGALVDIQMDDPTDPALAERIADVLNPLTAYLKARCAERRADPGDDLISRLVLAEVDGRALDDEEAANFSTALLLAGHITTTVLLGNIVRTLDEHPAHWDAAAEDPGRIPAIVEEVLRYRPPFPQMQRTTTKATEVAGVPIPADVMVNTWVLSANRDSDAHDDPDRFDPSRKSGGAAQLSFGHGVHFCLGAPLARLENRVALEEIIARFGRLTVDRDDERLRHFEQIVLGTRHLPVLAGSSPRQSA” as the sequence, how does the “soluble on expression in E. coli” value read?
Its value is “soluble”.

With “MGSSHHHHHHSSGLVPRGSHMHVQAKFSNNLNIFEYSIVIRKIFYLGPPGSFSQEAAEIFGSDLVPVRSISEIFHKISVTGDYGIVPIENSIEGPVNETLDGLFRHEDIYIVDHVEIPIEIFLASNCDTENIRRIYSHPHAIAEAGDYLERTENIEVIRTSSTSEAAKLASMDEAGAALCSMKAAQHYGLANTVKIESKSRNITRFILIGRERNVEGSRHIILCVIPDRPGSLHSLIGVLASRGINMNMIYSRPLRDTIWKYYFYIEFSGKLDEDLLLTMGKQSLRILYKGSFKCCR” as the sequence, how does the “soluble on expression in E. coli” value read?
The value was “soluble”.

For “MGSSHHHHHHSSGLVPRGSHMKDTEDAFGHALMDYADGKCSYEMVETRNGKIDVTSISYYFRDHDQWPSMEREAIRYAKGRVVDVGAGAGRHSLYLQDQGFDVTALDISPLAVEVMKHRGVKNAKIASIDEVEPGWDTMILLGNNFGLMRTIDEAMAFLRRFYSESSDDARIIAETTDPLSAGFQSDKGYPGELEIRVIYREYRSEWFRYLLADRQKLREIIKDTGWKIDHFYDIADVDVYCFVLSK”, which “soluble on expression in E. coli” value is on record?
Its value is “soluble”.

With “MGSSHHHHHHSSGLVPRGSHMKLQFNLKAYFKTSADPTPAKDAIAALFEEANSTLLTRGAPEGQGAKVTEWKLGEDRIELTLQSGRYVRVHDAIFRLRKQLAEALGKKYKIGIRGIEVESFIIKVPADHELRMLKVPYIKSMENIEGGIQLELEVGEAEMKNRVPDRILTLLEEKIEAAQYGAKAEHWNLLWQREPMEHPFKEDPTQAMMKEGWLKRGSSRGQWIHGPQSARIFRTFEKIVLEELLEPLGYREMIFPKLVTWEVWMKSGHAKGVYPEIYYVCPPQTRDPDYWEEVADYYKVTHEVPTKLIKEKIAEPIGGMCYAQCPPFWMYVAGETLPNEEIPVKVFDRSGTSHRYESGGIHGIERVDEFHRIEIVWIGTKEEVLKCAEELHDRYMHIFNDILDIEWRKARVTPWFMAQEGLLGLAEENTVGTTDYEACLPYRGPDGEWLEFQNVSINGDKYPKGFNVKLQSGDELWSGCSGVGLERWAAVFLAQKGLDPANWPEEFRNRVGEMPKGIRFL” as the sequence, how does the “soluble on expression in E. coli” value read?
The value was “soluble”.

Which “soluble on expression in E. coli” value does the source give for “MGSSHHHHHHSSGLVPRGSHMLKQKELIANVKNLTESDERITACMMYGSFTKGEGDQYSDIEFYIFLKHSITSNFDSSNWLFDVAPYLMLYKNEYGTEVVIFDNLIRGEFHFLSEKDMNIIPSFKDSGYIPDTKAMLIYDETGQLENYLSEISGARPNRLTEENANFLLCNFSNLWLMGINVLKRGEYARSLELLSQLQKNTLQLIRMAEKNADNWLNMSKNLEKEISLENYKKFAKTTARLDKVELFEAYKNSLLLVMDLQSHLIEQYNLKVTHDILERLLNYISE” here?
The value was “soluble”.

With “MGSSHHHHHHSSGLVPRGSHMNSILITGCNRGLGLGLVKALLNLPQPPQHLFTTCRNREQAKELEDLAKNHSNIHILEIDLRNFDAYDKLVADIEGVTKDQGLNVLFNNAGIAPKSARITAVRSQELLDTLQTNTVVPIMLAKACLPLLKKAAKANESQPMGVGRAAIINMSSILGSIQGNTDGGMYAYRTSKSALNAATKSLSVDLYPQRIMCVSLHPGWVKTDMGGSSAPLDVPTSTGQIVQTISKLGEKQNGGFVNYDGTPLAW” as the sequence, how does the “soluble on expression in E. coli” value read?
Its value is “soluble”.
